Numbering of substitutions follows the chain as printed. Names may count otherwise.
B1: Pfu Y7A/P36H: modified Pfu DNA polymerase with Y7A and P36H (protein, UniProt P61875 1-775, looked up, variant Y7A P36H)
DNA polymerase: MILDVDAITEEGKPVIRLFKKENGKFKIEHDRTFRHYIYALLRDDSKIEEVKKITGERHGKIVRIVDVEKVEKKFLGKPITVWKLYLEHPQDVPTIREKVREHPAVVDIFEYDIPFAKRYLIDKGLIPMEGEEELKILAFDIETLYHEGEEFGKGPIIMISYADENEAKVITWKNIDLPYVEVVSSEREMIKRFLRIIREKDPDIIVTYNGDSFDFPYLAKRAEKLGIKLTIGRDGSEPKMQRIGDMTAVEVKGRIHFDLYHVITRTINLPTYTLEAVYEAIFGKPKEKVYADEIAKAWESGENLERVAKYSMEDAKATYELGKEFLPMEIQLSRLVGQPLWDVSRSSTGNLVEWFLLRKAYERNEVAPNKPSEEEYQRRLRESYTGGFVKEPEKGLWENIVYLDFRALYPSIIITHNVSPDTLNLEGCKNYDIAPQVGHKFCKDIPGFIPSLLGHLLEERQKIKTKMKETQDPIEKILLDYRQKAIKLLANSFYGYYGYAKARWYCKECAESVTAWGRKYIELVWKELEEKFGFKVLYIDTDGLYATIPGGESEEIKKKALEFVKYINSKLPGLLELEYEGFYKRGFFVTKKRYAVIDEEGKVITRGLEIVRRDWSEIAKETQARVLETILKHGDVEEAVRIVKEVIQKLANYEIPPEKLAIYEQITRPLHEYKAIGPHVAVAKKLAAKGVKIKPGMVIGYIVLRGDGPISNRAILAEEYDPKKHKYDAEYYIENQVLPAVLRILEGFGYRKEDLRYQKTRQVGLTSWLNIKKS
B2: KOD N210D: modified KOD DNA polymerase with N210D, deficient in 3′-5′ exonuclease activity (exo(−)) (protein, listed as Thermococcus kodakaraensis)
chain: MILDTDYITEDGKPVIRIFKKENGEFKIEYDRTFEPYFYALLKDDSAIEEVKKITAERHGTVVTVKRVEKVQKKFLGRPVEVWKLYFTHPQDVPAIRDKIREHPAVIDIYEYDIPFAKRYLIDKGLVPMEGDEELKMLAFDIETLYHEGEEFAEGPILMISYADEEGARVITWKNVDLPYVDVVSTEREMIKRFLRVVKEKDPDVLITYDGDNFDFAYLKKRCEKLGINFALGRDGSEPKIQRMGDRFAVEVKGRIHFDLYPVIRRTINLPTYTLEAVYEAVFGQPKEKVYAEEITTAWETGENLERVARYSMEDAKVTYELGKEFLPMEAQLSRLIGQSLWDVSRSSTGNLVEWFLLRKAYERNELAPNKPDEKELARRRQSYEGGYVKEPERGLWENIVYLDFRSLYPSIIITHNVSPDTLNREGCKEYDVAPQVGHRFCKDFPGFIPSLLGDLLEERQKIKKKMKATIDPIERKLLDYRQRAIKILANSYYGYYGYARARWYCKECAESVTAWGREYITMTIKEIEEKYGFKVIYSDTDGFFATIPGADAETVKKKAMEFLKYINAKLPGALELEYEGFYKRGFFVTKKKYAVIDEEGKITTRGLEIVRRDWSEIAKETQARVLEALLKDGDVEKAVRIVKEVTEKLSKYEVPPEKLVIHEQITRDLKDYKATGPHVAVAKRLAARGVKIRPGTVISYIVLKGSGRIGDRAIPFDEFDPTKHKYDAEYYIENQVLPAVERILRAFGYRKEDLRYQKTRQVGLSAWLKPKGT
B3: KOD I142R: modified KOD DNA polymerase with I142R, deficient in 3′-5′ exonuclease activity (exo(−)) (protein, listed as Thermococcus kodakaraensis)
chain: B2 chain with I142R, D210N
B4: KOD D141A/E143A: modified KOD DNA polymerase with D141A and E143A, deficient in 3′-5′ exonuclease activity (exo(−)) (protein, listed as Thermococcus kodakaraensis)
chain: B2 chain with D141A, E143A, D210N

Legend:
Type in all cases: biochemical
482 bp of human β-globin = assay: PCR amplification of 482 bp of human β-globin with dUTP in place of dTTP; conditions: 100% dUTP instead of dTTP (FIGS. 5 to 8)
Description: 482 bp of human β-globin was amplified to compare the amplification difference between the case of using dTTP and the case of using dUTP in PCR, and the sensitivity to dUTP was examined. For amplification, each enzyme was used after being mixed with 1 μg of a KOD antibody per U of the enzyme. For PCR, components included in KOD-Plus-Ver. 2 (produced by Toyobo Co. Ltd.) were used. General dNTPs (dATP, dTTP, dCTP, dGTP) in an amount of 0.2 mM were added to 50 μl of individual reaction solutions, and dNTPs (dATP, dUTP, dCTP, dGTP) in an amount of 0.2 mM in which dTTP was replaced by dUTP were added to 50 μl of individual reaction solutions. The reaction solutions contained 1× PCR buffer, 1.5 mM MgSO4, primers represented by SEQ ID NOs: 27 and 28 in an amount of 15 pmol for amplifying […], 10 ng of human genomic DNA (produced by Roche), and 1 U of each respective enzyme mixed with the antibody. PCR was performed using a GeneAmp PCR system 9700 (produced by Applied Biosystems) on the following schedule: preliminary reaction at 94° C. for 2 minutes, followed by 35 cycles, each cycle consisting of 98° C. for 10 seconds and 68° C. for 1 minute. After the completion of each individual reaction, each of the resulting reaction solutions was analyzed using to a DNA-1000 kit for MultiNA (produced by Shimadzu Corporation) to confirm amplified DNA fragments. FIGS. 5 and 6 show the results.

[1] = system: human genomic DNA (about 1.3 kb) with dUTP added; assay: Evaluation of uracil (dUTP) sensitivity by PCR with dUTP added to the reaction; conditions: dUTP added to PCR (FIGS. 3 and 4)
Description: The uracil sensitivity of the modified DNA polymerase of the present invention can be evaluated by PCR. For example, a dUTP solution is added at a final concentration of 0.5 μM to 200 μM to a common PCR reaction solution containing DNA as a template, a buffer, magnesium, dNTPs, primers, and a DNA polymerase to be evaluated, and thermal cycling is performed. After the reaction, the presence or absence of PCR products is confirmed by ethidium bromide-stained agarose electrophoresis, and the uracil sensitivity can be evaluated by the concentration of accepted dUTP. With a DNA polymerase having high uracil sensitivity, the extension reaction is inhibited by the addition of a small amount of dUTP, and PCR products cannot be confirmed. With a DNA polymerase having low uracil sensitivity, gene amplification by PCR can be confirmed without problem, even if a high concentration of dUTP is added. The modified DNA polymerase with low uracil sensitivity in the present invention refers to a DNA polymerase such that when optimum thermal cycling is performed using any primers and DNA as a template in a reaction buffer optimum for the enzyme, even if a high concentration of dUTP is added, an extension reaction is not inhibited and PCR products can be confirmed, compared to wild-type DNA polymerase, which has no mutation.
More specifically, 10× PCR buffer included in KOD-Plus-Ver. 2 (produced by Toyobo Co. Ltd.) or 10× PCR buffer included in Pfu DNA Polymerase (produced by Agilent) is used; dUTP (produced by Roche) is added to 50 μl of individual reaction solutions containing 1× PCR buffer, 1.5 mM MgSO4, dNTPs (dATP, dTTP, dCTP, and dGTP) in an amount of 0.2 mM, primers represented by SEQ ID NOs: 25 and 26 in an amount of 15 pmol for amplifying about 1.3 kb, 10 ng of human genomic DNA (produced by Roche), and 1 U of each respective enzyme, to final concentrations of 0.5, 5, 50, 100, and 200 μM. PCR is performed using a GeneAmp PCR system 9700 (Applied Biosystems) on the following schedule; preliminary reaction at 94° C. for 30 seconds, followed by 30 cycles, each cycle consisting of 98° C. for 10 seconds, 65° C. for 30 seconds, and 68° C. for 1 minute and 30 seconds. After the completion of each individual reaction, 5 μl of each of the resulting reaction solutions is subjected to agarose electrophoresis, followed by ethidium bromide staining. The uracil sensitivity can be evaluated by confirming amplified DNA fragments of about 1.3 kb under ultraviolet irradiation.
PCR was performed by the following method to evaluate uracil sensitivity. For PCR, components included in KOD-Plus-Ver. 2 (produced by Toyobo Co. Ltd.) were used. dUTP (produced by Roche) was added to 50 μl of individual reaction solutions containing 1× PCR buffer, 1.5 mM MgSO4, dNTPs (dATP, dTTP, dCTP, dGTP) in an amount of 0.2 mM, primers represented by SEQ ID NOs: 25 and 26 in an amount of 15 pmol for amplifying about 1.3 kb, 10 ng of human genomic DNA (produced by Roche), and 1 U of each respective enzyme, to final concentrations of 0.5, 5, 50, 100, and 200 μM. PCR was performed using a GeneAmp PCR system 9700 (produced by Applied Biosystems) on the following schedule: preliminary reaction at 94° C. for 30 seconds, followed by 30 cycles, each cycle consisting of 98° C. for 10 seconds, 65° C. for 30 seconds, and 68° C. for 1 minute and 30 seconds. After the completion of each individual reaction, 5 μl of each of the resulting reaction solutions was subjected to agarose electrophoresis, followed by ethidium bromide staining. Under ultraviolet irradiation, amplified DNA fragments of about 1.3 kb were confirmed. FIGS. 3, 4, 7, and 8 show the results.

[2] = system: 1.3 kbp, 2.8 kbp, and 3.6 kbp of human β-globin; assay: Amplification of long-chain DNA in PCR using dUTP; conditions: 1.3, 2.8, 3.6 kbp; 100% dUTP (FIGS. 9 and 10)
Description: Amplification of 1.3 kbp, 2.8 kbp, and 3.6 kbp of human β-globin in PCR using dUTP was compared. For amplification, each enzyme was used after being mixed with 1 μg of a KOD antibody per U of the enzyme. For PCR, components included in KOD-Plus-Ver. 2 (produced by Toyobo Co. Ltd.) were used. 50 μl of individual reaction solutions containing 1× PCR buffer, 1.5 mM MgSO4, dNTPs (dATP, dUTP, dCTP, dGTP) in an amount of 2 mM in which dTTP was replaced by dUTP, primers in an amount of 15 pmol (SEQ ID NOs: 25 and 26 for amplification of 1.3 kbp; SEQ ID NOs: 26 and 29 for amplification of 2.8 kbp; SEQ ID NOs: 30 and 31 for amplification of 3.6 kbp), 10 ng of human genomic DNA (produced by Roche), and 1 U of each respective enzyme mixed with the antibody were used. PCR was performed using a GeneAmp PCR system 9700 (Applied Biosystems) on the following schedule: preliminary reaction at 94° C. for 2 minutes, followed by 35 cycles, each cycle consisting of 98° C. for 10 seconds, 65° C. for 30 seconds, and 68° C. for about 1 minute per kbp (1 minute and 30 seconds for amplification of 1.3 kbp; 3 minutes for amplification of 2.8 kbp; 4 minutes for amplification of 3.6 kbp). As a control, amplification was also performed using Taq DNA polymerase. Taq DNA polymerase produced by Toyobo Co. Ltd. mixed with Anti-Taq High (produced by Toyobo Co. Ltd.) was used. 50 μl of a reaction solution containing 1× buffer included in Blend Taq, dNTPs (dATP, dUTP, dCTP, dGTP) in an amount of 2 mM in which dTTP was replaced by dUTP, primers in an amount of 10 pmol the same as the above), 10 ng of human genomic DNA (produced by Roche), and 2.5 U of the enzyme mixed with the antibody was used. PCR was performed using a GeneAmp PCR system 9700 (produced by Applied Biosystems) on the following schedule: preliminary reaction at 94° C. for 2 minutes, followed by 35 cycles, each cycle consisting of 94° C. for 30 seconds, 65° C. for 30 seconds, and 68° C. for about 1 minute per kbp (1 minute and 30 seconds for amplification of 1.3 kbp; 3 minutes for amplification of 2.8 kbp; 4 minutes for amplification of 3.6 kbp). After the completion of each individual reaction, 5 μl of each of the resulting reaction solutions was subjected to agarose electrophoresis, followed by ethidium bromide staining, and the amount of amplified DNA fragments was confirmed under ultraviolet irradiation. FIGS. 9 and 10 show the results.

Molecule | PCR amplification of 482 bp with dUTP (482 bp of human β-globin) | sensitivity to dUTP / amount of amplification, comparison with single mutants or wild type [1] | amount of amplification of long-chain DNA with dUTP [2]
KOD Y7A/P36K: modified KOD DNA polymerase with Y7A and P36K | allowed for PCR amplification | more tolerant of the addition of high concentration of dUTP and provided a larger amount of amplification | 
B1 |  | provided a larger amount of amplification | provided larger amounts of amplification
B2 |  | less sensitive to dUTP than the wild-type DNA polymerase | 
B3 |  | less sensitive to dUTP than the wild-type DNA polymerase | 
B4 |  | less sensitive to dUTP than the wild-type DNA polymerase | 
